Measurements: doi:10.1101/2023.06.21.545551 (2023)

Target: MYC(303–351) (human)
Experiment: NMR; printed fit value 1205 uM in parentheses

Kd: > 1000 µM
B1: MYC(1–88) (domain or fragment)
chain: MPLNVSFTNRNYDLDYDSVQPYFYCDEEENFYQQQQQSELQPPAPSEDIWKKFELLPTPPLSPSRRSGLCSPSYVAVTPFSLRGDNDG
